Experimental data as given in the nanobody polyreactivity screen of Harvey et al. (2022).

Experiment: yeast display, Sf9 membrane polyspecificity reagent, FACS + sequencing; frameworks hold sequencing errors
Summary of the method: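 Genes from sorted yeast were amplified by colony PCR, read by MiSeq 2 × 250 sequencing and filtered on CDR length. These cells carried a synthetic nanobody library in Saccharomyces cerevisiae BJ5465 and were sorted by FACS into low and high (top ~1%) gates on anti-HA and streptavidin fluorescence. Polyreactivity is labelled according to the gate of origin.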

Row | Sequence | polyreactivity (PSR sort gate)
1 | QVQLVESGGGLVQAGGSLRLSCAASGRTFTYNAMGWYRQAPGKDRELVARISFSGSSTYYADSVKGRFTISRDNAKNTVYLQMNSLKPEDTAVYYCATEAPYYIGGRYRYQRYDYWGQGTQVTVSS | high polyreactivity
2 | QVQLVESGGGLVQAGGSLRLSCAASGITFYYYAMGWYRQAPGKERELVADISSSGGSTYYADSVKGRFTISRDNAKNTVYLQMNSLKPEDTAVYYCNAVYRWYRPRVRFFRYDYWGQGTQVTVSS | high polyreactivity
3 | QVQLVESGGGLVQAGGSLRLSCAASGSIFAPNAMGWYRQAPGKEREFVAGITQSGTSTYADSVKGRFTISRDNAKNTVYLQMNSLKPEDTAVYYCAAEYYYGYWYGYIISYDYWGQGTQVTVSS | high polyreactivity
4 | QVQLVESGGGLVQAGGSLRLSCAASGSIFGYNAMGWYRQAPGKERELVAAISGGGGTYYADSVKGRFTISRDNAKNTVYLQMNSLKPEDTAVYYCATDRGHKWLFYGTYYRYEYWGQGTQVTVSS | low polyreactivity
5 | QVQLVESGGGLVQAGGSLRLSCAASGSIFVTYAMGWYRQAPGKERDLVATITNVGRTNYADSVKGRFTISRDNAKNTVYLQMNSLKPEDTAVYYCNADGAPGYPGAYDYWGQGTQVTVSS | low polyreactivity
6 | QVQLVKSGGGLVQAGGSLRVSCAATGRIYTDNAMGWYRQATGKERELVAGMSSSGGRTYYADSVKGRFTISRDNAKNSVFFQMNSLLTEATAVYYCAAANSRRDGRYYWGQGTQVSVSS | high polyreactivity
7 | QVQLVESGGGLVQAGGSLRLSCAASGSTFKNNAMGWYRQAPGKEREFVASISKRGGSTYYADSVKGRFTISRDNAKNTVYLQMNSLKPEDTAVYYCGKTYWSYGWSHGDYGEFDYWGQGSQVTVSS | high polyreactivity
8 | QVQLVESGGGLVQAGGSLRLSCAASGSTLRSYTMGWYRQAPGKERELVAAITTTGRTYYADSVKGRFTISRDNAKNTVYLQMNSLKPEDTAVYYCNAVAPGKYNHWGQGTQVTVSS | high polyreactivity
9 | QVQLVESGGGLVQAGGSLRLSCAASGFIFGYYAMGWYRQAPGKERELVAAISGDAGRTYYADSVKGRFTISRDNAKNTVYLQMNSLKPEDTAVYYCADADTYKMDYWGQGTQVTVSS | low polyreactivity
10 | QVQLVESGGGLVQAGGSLRFSCAASGSIIYFYAMGWYRQAPGKERELVATITSGGRTYYADSVKGRFTISRDTAKNTVYLQMNSLKPEDTAVYYCNRRPVSYRYSSYNYDYLGQGTQVTVSS | high polyreactivity
11 | QVQLVESGGGLVQAGGSLRLSCAASGFIFVIYAMGWSRQAPGKERELVAAIRWRGGGTYYADSVKGRFTISRDNAKNTVYLQMYSLKPEDTAVYYCNADGWTYREEYWWRMDYWGQGTQVTVSS | low polyreactivity
12 | QVQLVESGGGLVQAGGSLRLSCAASGFIFSGYAMGWYRQAPGKERELVAAISGGGSTYYADSVKGRFTSSRDNAKNTVYLQMNNLKPEETADYYCAARVYWSVRYYYWGQGTQVTVSS | high polyreactivity
13 | QVQLVESAAVLVQAGGRLRLSCADSGRIFTDNGMGWYRQAPGKERELVAAISESGGSTYYADSVKGRFTISRDNAKNTVYLQMNSLKPEDTAVYYCAADLYWYGYHYDYWGQGTQVTVSS | low polyreactivity
14 | QVQLVESGGGIVQAGGSLRLSCAASGSTFYVNTMGWYRQAPGKERDLVAAISYTGGNTYYADSVKGRFTISRDNAKNTVYLQMNSLKPEDTAVYYCAARILYRGTGYPYRMNYWGQGTQVTVSS | high polyreactivity
15 | QVQLVESGGGLVQAGGSLRLSCAASGSIFKEYAMGWYRQAPGKERELVAAITGSGGSTFYADSVKGRFTISRDNAKNTVYLQMNSLIPEDTAVYYCNARRPAKSRYRHDYWGQGTQVTVSS | high polyreactivity
16 | QVQLVESGGGLVQAGGSLRLSCAASGRISIWYAMGWYRQAPGKERELVARISTSSGRTYYADSVKGRFTISRDNAKNTVYLQMNSLKPEDTAVYYCNAAGYRIYFSTRYDYWGQGTQVTVSS | high polyreactivity
17 | QVQLVESGGGLVQAGGSLRLSCAASGRTFRFNTMGWYRQAPGKERELVAAITSSGGSTYYADSVKGRFTISRDNAKNTVYLQMNSLKPEDTAVYYCAKRFYYRNRFDYWGQGTQVTVSS | low polyreactivity
